# In paper PMC4675558:
# B1: (MBP)-Met30(1-186), P39014 M178E; I179E (protein)
# chain: MRRERQRMMSFEDKDKDDLDNSNSNNSSEMTDTAMMPPLKRLLITGSSDDLAQGSSGKKKMTMATRSPSSSPDLATNDSGTRVQPLPEYNFTKFCYRHNPDIQFSPTHTACYKQDLKRTQEINANIAKLPLQEQSDIHHIISKYSNSNDKIRKLILDGILSTSCFPQLSYISSLVTHEEKIDFISI
# Target: T1, Cdc53(267-851)/GST-Rbx1 complex expressed in bacteria, Q08273
# T1 chain: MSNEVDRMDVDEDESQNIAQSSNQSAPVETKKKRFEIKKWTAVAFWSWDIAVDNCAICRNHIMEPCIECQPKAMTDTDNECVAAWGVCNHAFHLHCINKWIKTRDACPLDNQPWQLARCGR
# Assay: in vitro binding assay (MBP pull-down on amylose beads, Western blot quantification)
# Conditions: chain shown with the change, bacterial lysate expressing Cdc53(267-851)/Rbx1, normalized to Amido black signal of MBP tagged protein, read off a plot
binder,measurement,setting,value
B1,response (Cdc53/Amido Black),"Exp 1, parent: est. 3.1",0.15
same,response (Cdc53/Amido Black),"Exp 2, parent: est. 7.3",2.9
same,response (Cdc53/Amido Black),"Exp 3, parent: est. 4.6",0.45
